Experimental data from article PMC7719688.

Biological target: T1, ArcA-His6 (acetyl phosphate present or absent) (Escherichia coli K1 Rs218 (O18:H7:K1)) (UniProt P0A9Q1)
T1 sequence: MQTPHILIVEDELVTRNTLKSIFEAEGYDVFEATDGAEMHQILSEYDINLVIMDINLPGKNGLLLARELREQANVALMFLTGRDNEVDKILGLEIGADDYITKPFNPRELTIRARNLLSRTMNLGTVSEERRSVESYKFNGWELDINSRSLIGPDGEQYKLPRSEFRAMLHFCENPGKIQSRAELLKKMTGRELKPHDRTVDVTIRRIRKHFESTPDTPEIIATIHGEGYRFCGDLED
Test: EMSA
Conditions: 10 mM Tris-HCl pH 7.4, 50 mM KCl, 0.1 mM EDTA, 0.2 mM DTT

Sequence	binding (+/- 30 mM acetyl phosphate, 37 C 30 min, 6% PAGE in 0.5x TBE, GelRed stain)	binding ([…])
ACGAACTGTTCACCGCCACTCGCGGTCAGGGCGCACAGCTGAACGGCTACCGTCTGCGCGGCAGCACCGCTCGCGATCTCGACGGTACTATTCTGGCGACCGGCTTCCCGTTCAAAGCAAAACAGTACGCCACTACCTACATCAACATCGTCGGCA (double strand) [suhB gene fragment]	no binding	–
ATTTGGTTGTAACACGGCGTATGGCACATGCGTCGTTAGCGGTCTGGGGACGTTAAAGGGGACAATCCACTCCTTGCTCGAGCAGACAAACCAGGTAGCCGGAATGTGCAAGTCAATGAGGATGCTGATAAGACGCCTAACCAGCGTGGCGATTCGGTTTGACGCCTGGGAAGAGACCAGGGTGCAACGATGAGGGCATTTATGGAACCGCGACAAAGTGTGGTGCCGTAACTGGCTAAGTGCTCTCAGC (double strand) [sRNA-17 promoter (PsRNA-17)]	–	binds
